Results on eight molecules are retold here after patent publication US20250042994A1 (HAINAN SIMCERE ZAIMING PHARMACEUTICAL, published 2025).

First the molecules themselves.
B1: F4.152.7 (antibody, human IgG1, V domains shown)
VH: QVQLQQPGAELVKPGASVKLSCKASGYTFTSYWMHWVKQRPGQGLEWIGEIDPSDSYTNYNQKFKGKATLTADKSSSTAYMQLSGLTSEDSAVYHCARGGDYDGYYVMDYWGQGTSVTVSS
VL: EIVLTQSPTTMAASPGEKITITCSASSSISSNYLHWYQQKPGFSPKLLIYRTSNLASGVPARFSGSGSGTSYSLTIGTMEADDVATYYCQQGSYIPRIFTFGSGTKLEIK
notes: human-murine chimeric antibody, human IgG1
B2: F4.191.1 (antibody, human IgG1, V domains shown)
VH: QVQLQQPGAELVRPGASVKLSCKASGYTFTSYWINWVKQRPGQGLEWIGNIHPSDSYTNYNQKFKDKATLTVDKSSSTAYMQFSSPTSEDSAVYYCTREDYYYGSNYDAMDYWGQGTSVTVSS
VL: DIVMTQSHKFMSTSVGDRVNITCKASQDVGSSVAWYQQKPGQSPKLLIYWASTRHAGVPDRFTGSGSGADFTLTISNVQSEDLADYFCQQYSTYPLTFGAGTKLELK
notes: as for B1
B3: F5.2.9 (antibody, human IgG1, V domains shown)
VH: QVTLKESGPGILQPSQTLSLTCSFSGFSLSTFGLGVGWVRQPSGKGLEWLAHIWWDDDKYYNPALKSRVTVSKETSKNQVFFKIANVDTADSATYYCARLSRGLRRDVVYAMDHWGQGTSVTVSS
VL: DIQMTQTTSSLSASLGDRVTISCRASQDISNYLNWYQQKPDGSVKLLISYVSRLQSGVPSRFRGSGSGTDYSLTISNLDQEDIATYFCQQGIAFPYTFGGGTKLDIK
notes: as for B1
B4: F5.7.1 (antibody, human IgG1, V domains shown)
VH: QVTLKESGPGILQPSQTLSLTCSFSGFSLTTFGMGVGWIRQPSGKGLEWLTHIWWDDDKYYNPALKSRLTISKDTSKNQVFLRIANVDTADTATYYCARVITTGVPYFDYWGQGTTLTVSS
VL: ENVLTQSPAIMSASPGEKVTMTCRASSSVSSSYLYWYQQKSGASPKLWISSTSNLASGVPARFSGSGSGTSYSLTINSVEAEDAATYYCQQYSGYPWTFGGGTKLEIK
notes: as for B1
B5: F5.3.6 (antibody, human IgG1, V domains shown)
VH: DVQLQESGPGLVKPSQSQSLTCSVTGYSITSGYYWNWIRQFPGNKLEWMGYISYDGSNNYNPSLKNRISITRDTSKNQFFLKLNSVTTEDTVTYYCARAPLTGDRYWYFDVWGTGTTVTVSS
VL: DIVLTQSPASLAVSLGQRATISCRASQSVSTSSYSYMHWYQQKPGQTPKLLIKYASNLKSGVPARFSGSGSGTDFTLNIHPVEEEDTATYYCQHSWEIPPTFGGGTKLEIK
notes: as for B1
B6: F4.180.1 (antibody, human IgG1, V domains shown)
VH: EVQLQQSAPELVKPGASVKMSCKTSGYTFTENIIHWVKQTHGKSLEWIGGINPDNGGTSYHQKFKGRTTLTIDKSSSTAYMELRSLTSDDSAVFFCARQAPLYWYFDIWGAGTTVTVSS
VL: DIVLTQSPASLAVSLGQRATISCRASESVDSYGNSLMHWFQQKPGQPPRLLIYRASNLESGIPARFSGSGSRTDFTLTITPVEADDVATYYCQQSNEDPWTFGGGTKLEIK
notes: as for B1
B7: F4.15.9 (antibody, human IgG1, V domains shown)
VH: QVQLQQSGPELVKPGASVKISCKASGYAFSSSWMNWLKQRPGQGLEWIGRIYPGDGDTNYNGKFKGKATLTADESSSTAYMQLSSLTSVDSAVYFCARGITTIITIAWFASWGQGTLVTVSA
VL: QIVLSQSPTILSASPGEKVTMTCRASSSVSYMHWYQQKPGSSPKPWIYATSNLASGVPPRFSGSGSGTSYSLTISRVGAEDAATYYCQQWSSDPWTFGGGTKLEIK
notes: as for B1
B8: F4.145.9 (antibody, human IgG1, V domains shown)
VH: EVQLVESGGGLVKPGGSLKLSCAAAGFAFSSYDMSWVRQIPEKRLEWVAYISAGGGNTYFLDTVKGRFTISRDHAKNTLSLQMSSLKSEDTAMYFCVRHGDYYRYFYAMDYWGQGSSVTVSS
VL: DIVMTQSHKFMSTSVGDRVSITCKASQDVGTAVAWSQQKPGQSPKLLIYWASTRHTGVPDRFTGSGSGTDFTLTISNVQSEDLADYFCQQFVTYPYTFGGGTKLEIK
notes: as for B1

The target in the first assay is T1, Human CD19-his protein (human, UniProt P15391 20-291).
T1 construct: bought protein; also called human CD19 protein; recombinant human CD19-His; not shown: His tag
T1 sequence (looked up): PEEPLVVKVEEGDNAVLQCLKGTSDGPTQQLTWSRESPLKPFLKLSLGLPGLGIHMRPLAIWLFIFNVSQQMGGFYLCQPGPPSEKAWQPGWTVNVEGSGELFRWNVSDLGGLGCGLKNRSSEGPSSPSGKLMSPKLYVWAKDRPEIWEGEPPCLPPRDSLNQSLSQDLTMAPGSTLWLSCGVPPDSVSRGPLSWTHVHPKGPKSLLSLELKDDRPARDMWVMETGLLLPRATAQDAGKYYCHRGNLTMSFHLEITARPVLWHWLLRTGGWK
Nature of the assay: ELISA, antibody at 0.001 nM. On the technique in general: In an ELISA, binding on a coated surface is turned into a signal by an enzyme label.
In turn, B1 displayed an OD450 of 0.07.

B2 returned an OD450 of 0.06.

B3 showed an OD450 of 0.11.

In turn, B4 displayed an OD450 of 0.08.

With B5, the OD450 was determined as 0.06.

As for B6, the OD450 came to 0.06.

Turning to B7, the OD450 was 0.08.

In turn, B8 had an OD450 of 0.08.

A further assay deals with T1, Human CD19-his protein. Kind of assay: ELISA, antibody at 10 nM.
Turning to B1, the OD450 was 2.01.

Consider B2, for which the OD450 was found to be 1.43.

As for B3, the OD450 turned out to be 1.76.

Consider B4, for which the OD450 is 1.78.

Molecule B5 showed an OD450 of 1.56.

B6 returned an OD450 of 1.92.

B7 yielded an OD450 of 1.27.

B8 displayed an OD450 of 1.73.

The target in the next assay is T1, Human CD19-his protein. Kind of assay: ELISA, antibody at 0.01 nM.
The molecule B1 returned an OD450 of 0.26.

For the molecule B2, the OD450 was 0.13.

In the case of B3, the OD450 is 0.29.

Regarding B4, the OD450 stood at 0.25.

B5 came in with an OD450 of 0.09.

With B6, the OD450 came to 0.12.

B7 gave an OD450 of 0.24.

B8 displayed an OD450 of 0.27.

In a further assay the target is T1, Human CD19-his protein. Kind of assay: ELISA, antibody at 100 nM.
B1 came in with an OD450 of 2.07.

With B2, the OD450 is 1.69.

B3 came in with an OD450 of 1.56.

In turn, B4 displayed an OD450 of 1.91.

B5 displayed an OD450 of 1.49.

As for B6, the OD450 came out at 2.02.

B7 came in with an OD450 of 1.35.

Molecule B8 returned an OD450 of 1.84.

The next assay addresses T1, Human CD19-his protein. Kind of assay: ELISA, antibody at 0.10 nM.
Molecule B1 gave an OD450 of 1.28.

B2 gave an OD450 of 0.57.

As to B3, the OD450 is 1.05.

For B4, the OD450 stood at 1.09.

In turn, B5 yielded an OD450 of 0.33.

As to B6, the OD450 was 0.76.

For the molecule B7, the OD450 worked out at 1.06.

B8 registered an OD450 of 1.11.

Another assay deals with T2, human CD19 exon1-3-his protein (human, UniProt P15391 20-186, limits assumed).
T2 construct: made in HEK293E cells; also called membrane-distal end; not shown: His tag
T2 sequence (looked up): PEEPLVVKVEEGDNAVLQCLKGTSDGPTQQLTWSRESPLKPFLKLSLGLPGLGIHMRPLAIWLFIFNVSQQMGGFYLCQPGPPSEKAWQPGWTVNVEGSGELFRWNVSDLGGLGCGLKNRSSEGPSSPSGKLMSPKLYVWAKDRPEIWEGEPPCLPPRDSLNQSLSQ
Kind of assay: ELISA, coated at 2 ug/mL.
Consider B1, for which the binding result is “no binding”.

With B2, the binding result is “no binding”.

With B3, the binding result was “no binding”.

As for B4, the binding result is “no binding”.

For the molecule B5, the binding result was “no binding”.

Regarding B6, the binding result is reported as “no binding”.

In the case of B7, the binding result is “no binding”.

B8: the binding result is listed as “no binding”.

In a further assay the target is T1, Human CD19-his protein. Nature of the assay: ELISA, antibody at 0.0001 nM.
Molecule B1 returned an OD450 of 0.05.

On to B2, for which the OD450 came out at 0.05.

In turn, B3 displayed an OD450 of 0.08.

In turn, B4 gave an OD450 of 0.06.

B5 registered an OD450 of 0.05.

Turning to B6, the OD450 was found to be 0.05.

B7 returned an OD450 of 0.06.

B8 came in with an OD450 of 0.06.

The target of a further assay is T3, murine CD19 protein (murine, UniProt P25918 17-287, limits assumed).
T3 construct: bought protein; also called commercial murine CD19
T3 sequence (looked up): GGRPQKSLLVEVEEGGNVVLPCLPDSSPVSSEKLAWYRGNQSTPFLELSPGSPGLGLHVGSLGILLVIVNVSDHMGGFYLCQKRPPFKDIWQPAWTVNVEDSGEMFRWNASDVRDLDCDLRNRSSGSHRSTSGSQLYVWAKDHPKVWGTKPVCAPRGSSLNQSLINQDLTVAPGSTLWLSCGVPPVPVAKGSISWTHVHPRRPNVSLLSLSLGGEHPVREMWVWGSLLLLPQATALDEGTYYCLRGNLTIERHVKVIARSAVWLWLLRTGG
Kind of assay: ELISA, coated murine CD19. The gist of the method:
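Plates coated overnight at 4° C with recombinant murine or monkey CD19 and blocked with 2% BSA. Chimeric antibodies, serially diluted from 100 nM, bound for 2 h at 37° C. TMB development for 10 min with OD450 read-out.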
Consider B1, for which the binding result is “no binding”.

Take B2: the binding result is reported as “no binding”.

On to B3, for which the binding result was “no binding”.

With B4, the binding result is listed as “no binding”.

B5: the binding result is “no binding”.

B6: the binding result was “no binding”.

Regarding B7, the binding result is reported as “no binding”.

Consider B8, for which the binding result is listed as “no binding”.

The target of a further assay is T1, Human CD19-his protein. Kind of assay: ELISA, antibody at 1.00 nM.
B1: the OD450 stood at 2.12.

Turning to B2, the OD450 came to 1.42.

B3 had an OD450 of 1.55.

In turn, B4 registered an OD450 of 1.62.

B5 came in with an OD450 of 1.11.

For B6, the OD450 was 1.63.

The molecule B7 yielded an OD450 of 1.12.

As to B8, the OD450 came to 1.79.

The target of a further assay is T1, Human CD19-his protein. Nature of the assay: ELISA on coated human CD19-His. Here is the method:
Human CD19-his protein (purchased from ACROBiosystems, catalog number: CD9-H52H2) was diluted with PBS to a final concentration of 4 μg/mL, and then added to a 96-well ELISA plate at 100 μl/well. The plate was sealed with a plastic film and incubated overnight at 4° C., the plate was washed 2 times with PBS the next day, and then a blocking solution [PBS+2% (w/w) BSA] was added for blocking at room temperature for 2 h. The blocking solution was poured off, and 100 nM gradiently diluted CD19 chimeric antibody or control antibody was added at 50 μl/well. After incubation at 37° C. for 2 h, the plate was washed 3 times with PBS. […] TMB substrate was added at 50 μl/well, and incubated at room temperature for 10 min, and then a stop solution (1.0 N HCl) was added at 50 μl/well. The OD450 nm values were read by an ELISA microplate reader (Multimode Plate Reader, EnSight, purchased from Perkin Elmer).
For B1, the “EC50 (read off the curve)” value was around 0.06 nM.

B2: the 50% effective concentration (EC50 (read off the curve)) is around 0.2 nM.

For B3, the “EC50 (read off the curve)” value is around 0.06 nM.

Consider B4, for which the 50% effective concentration (EC50 (read off the curve)) was around 0.07 nM.

As to B5, the “EC50 (read off the curve)” value was around 0.4 nM.

In the case of B6, the “EC50 (read off the curve)” value is around 0.2 nM.

On to B7, for which the “EC50 (read off the curve)” value was around 0.03 nM.

Turning to B8, the “EC50 (read off the curve)” value is around 0.06 nM.

A word on the EC50 (read off the curve): it is the midpoint of the concentration-response curve. The low end stands for higher potency in that assay, the high end for lower potency in that assay.
